Tests used:
[1] = Stability in aqueous solution; type: physicochemical
J774 murine macrophages = test: CD36 Macrophage Receptor Binding Competition Assay; details: competition with OxLDL binding
Water solubility = type: physicochemical
mAb E06 = test: Binding of mAb E06 to compound 9; details: Figure S2, Supporting Information
macrophages = details: at the concentrations used, even at room temperature for up to 72 hours; cell number or protein content, time course studies of cell function (data not shown)
CD36 scavenger receptor = test: Competition for binding of CuOxLDL to the CD36 scavenger receptor; details: Figure S1, Supporting Information

## CCCCCCCCCCCCCCCC(=O)OC[C@H](COP(=O)([O-])OCC[N+](C)(C)C)OC(=O)CCCCN(C)CCCC[C@H](NC(=O)[C@@H](NC(=O)CNC(=O)[C@@H](NC(C)=O)[C@@H](C)O)[C@@H](C)O)C(=O)NCC(=O)NCC(=O)O [Compound 9, (4S,10S,13S,25R)-13-((2-((carboxymethyl)amino)-2-oxoethyl)carbamoyl)-4,10-bis((R)-1-hydroxyethyl)-18-methyl-2,5,8,11,23-pentaoxo-25-((palmitoyloxy)methyl)-24-oxa-3,6,9,12,18-pentaazahexacosan-26-yl-(2-(trimethylammonio)-ethyl) phosphate]
[1]
  stability in aqueous solution (in words): stable
J774 murine macrophages
  binding to macrophage scavenger receptors (in words): binds to macrophage scavenger receptors
Water solubility
  water solubility (in words): water soluble
mAb E06
  binding of mAb E06 (in words): specifically binds
macrophages
  impact on viability of macrophages: no impact
CD36 scavenger receptor
  competition for the binding of CuOxLDL to the CD36 scavenger receptor (in words): competes with high affinity
